± gives the uncertainty stated by the source.
Assay: amyloid nucleation score (Sup35N fusion, yeast selection) (log enrichment); library NNK1; higher = more nucleation; inactive = no reads after selection
Method in brief: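 On medium lacking adenine and uracil, psi-negative yeast expressing peptides of 20 random codons fused to Sup35N were grown 7 days at 30°C after a 24-hour induction with 100 μM copper sulfate. Illumina sequencing of input and output plasmid inserts gave the reads, and sequences under 100 input reads were excluded. The nucleation score is the DiMSum log enrichment of output over input reads, centred on the mode score of non-aggregating sequences.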

| Substance | amyloid nucleation score |
| --- | --- |
| VGYGASMYYYFFWHKFFLVF | 0.037 ± 1 |
| WSTLVKRSDFCVHWVLFGSG | -0.179 ± 0.46 |
| LWMFRFNYYDVLPCGMPGLC | 0.694 ± 0.66 |
| LDWLMGGRTA | -0.598 ± 1.7 |
| GNYNSPFFRGSVNWNWCM | 0.485 ± 1.2 |
| RFVRYQSQHFHKLNSWWGCL | 0.135 ± 0.39 |
| GEGICL | -0.012 ± 1.1 |
| FRSLSSGIFGACWWYMFYSM | 0.229 ± 0.6 |
| QSNLYLLALELAYECYSGCH | 0.049 ± 0.72 |
| SPKPYFSRKYVIKIHKRS | -1.54 ± 1.4 |
| SFSTKPTCRPPILHSLERVT | 3.62 ± 0.064 |
| LMYSNRYF | 4.1 ± 0.079 |
| QSICFYSLKQCIRAKHR | 0.774 ± 0.37 |
| PSRATYCRGSMIHLIFDWIT | 0.955 ± 0.54 |
| VSHYGCFQTVCDLRVGGPPE | -1.4 ± 2.4 |
| CCFMYAQIDLLNFSMDVLAR | 0.198 ± 0.29 |
| DGLKGSLCGMGHRLCLKKMN | 0.131 ± 0.41 |
| WIPGRLLSAVKVGSNSLVF | -0.637 ± 0.62 |
| IIFVEWNSGRAC | -0.526 ± 0.51 |
| SLIYGILCKINQ | -0.064 ± 0.44 |
| WLSSKGRQSMSYCAYTMRTP | -0.247 ± 0.34 |
| QRNVPIGLVRYDAV | 0.45 ± 1.1 |

| Substance | amyloid nucleation score |
| --- | --- |
| RYTIDLMSFNIKFWSHTLLH | -0.869 ± 1.5 |
| MHRESR | 1.2 ± 0.36 |
| RPMTVSKEAAKSDGCQKLNT | -0.634 ± 0.48 |
| VTRYRTLTRHWWS | 0.277 ± 0.39 |
| MGPMCSQPLHVPSMVSMVTL | 0.735 ± 0.35 |
| DVFHTLIRSRLDFFFYKRER | 0.14 ± 0.4 |
| FNAVATKSVNRGRSLLDVTQ | 0.62 ± 0.8 |
| PYKLFHVVSCCRTQGDNVAK | -0.813 ± 0.49 |
| SNNELSTMTRL | -1.01 ± 1.2 |
| TAVGSRGFPRNHLRPKNTSG | -0.309 ± 0.53 |
| RFHNRFLYLFKFIQAQINKC | 0.187 ± 0.41 |
| FQRGKLTASLSMVHSSRVCF | -1.6 ± 2.4 |
| VRIINMFVDPNIIL | 6.818 ± 0.044 |
| FYVMSMLIM | 0.029 ± 0.47 |
| PWSRDARPSADW | inactive |
| VRGLGGW | -0.134 ± 0.97 |
| HGKFRHLSCTASSNEVEGNN | 1.17 ± 0.58 |
| MTVYLITNRHLR | 0.905 ± 0.64 |
| RYVNRT | -0.497 ± 1.2 |
| TFNVVNPMVTYN | -0.776 ± 0.3 |
| YRTNRKEHSYVLLYARRPSQ | 0.56 ± 0.72 |
| PLYGC | 0.634 ± 0.72 |

| Substance | amyloid nucleation score |
| --- | --- |
| QDTVFYMTDWGCGATKARDD | 0.117 ± 0.94 |
| DRRFFSSV | -1.36 ± 1 |
| DNRIIWLRGTMS | 0.853 ± 0.92 |
| SDVWGWWGRSRVTADYFADV | -1.17 ± 1.7 |
| FWLNLPAWISFAMFVCIVYV | -0.132 ± 0.47 |
| WPVYEDKACCHVDAHKGEAT | 0.838 ± 0.48 |
| NMLFLSRGDP | -0.499 ± 1.9 |
| FSILILRHCVDLRYRVTSTM | 0.446 ± 0.6 |
| QHCRA | 0.639 ± 0.88 |
| LHTCHSLLPLIEYDFISYGV | -0.208 ± 0.7 |
| LRTVPIALIRNMLPVNQESR | 0.479 ± 0.53 |
| AALSC | 0.844 ± 0.46 |
| DISDRGTDIFVSTPGSSMLS | 0.503 ± 0.43 |
| VSTSNSYDSSQHDLDFRQSG | -0.162 ± 0.63 |
| CRDAILIEVGNYRHLVLGPV | 0.677 ± 0.52 |
| QNPFSTSHIVRSLLCLNDVI | inactive |
| RFLSVISDKTIAYWPSDVVS | 0.377 ± 0.99 |
| VIYSSIHKLSDGDRVENPRS | -0.933 ± 0.96 |
| ARCCWRG | -0.849 ± 1.1 |
| LYGFLICLCDSYVRGH | 0.213 ± 0.49 |
| YHFTSFSNVHHLAHRVGNSF | -0.333 ± 1.4 |
| LTGRCPFVGLRLEGHLFLTG | -0.169 ± 0.81 |

| Substance | amyloid nucleation score |
| --- | --- |
| NIFWST | 0.361 ± 0.78 |
| FNTALSDPYVTMWHYYTNYC | -0.8 ± 0.63 |
| AMLKDRNMLADYFHGVILGA | inactive |
| RGGWRTVQCSLNQGWLRRYL | 0.048 ± 0.42 |
| DKLLPHFK | inactive |
| FLKDIYVYVTLVCHLRSLAS | -0.589 ± 0.49 |
| GSSQWFRQVLYFRQSPGWGS | -0.33 ± 0.65 |
| LEQCYAAHSTYKMMPWAYKA | 0.091 ± 0.33 |
| TLTSRVENKFRMVIL | 3.46 ± 0.088 |
| CLLIVRISNSKFVVPPTVFA | 0.608 ± 0.49 |
| DDPLNVTHKVRN | 5.31 ± 0.069 |
| CVGRQLAGKAYLVLRWRECD | -0.372 ± 1.4 |
| DPSSLNSGPCLHMAGGCGNQ | -0.249 ± 1.7 |
| SKCAVQCLVG | 0.986 ± 0.2 |
| SGHDGARVVMRRILYTSKSG | 0.291 ± 0.34 |
| RNSRAMIFEMHVVGLWWQSC | -0.538 ± 2.1 |
| RVITYSV | -0.016 ± 1.4 |
| GLVHMPGHLRVLRQLLSA | 0.377 ± 0.56 |
| NVTFHSRSGV | -0.316 ± 0.84 |
| LDWHKLRDWVKLGW | -0.255 ± 0.73 |

From the supplement of paper PMC12042874
